According to patent US8980614B2, “Staphylococcus haemolyticus prophage φSH2 endolysin is lytic for Staphylococcus aureus” (The United States of America, as represented by The …, priority 2012, dated 2015):

What was measured:
[1] = tested on: MRSA strain NRS382; test: Control of systemic MRSA infection in a murine model; assay type: in vivo, Balb/c mice
[2] = tested on: S. aureus NRS 384; test: Plate lysis assay; assay type: cell-based; details: S. aureus NRS 384 (MRSA); 100 pmoles and 2-fold serial dilutions spotted on bacterial lawns
Experimental: (§1) Purified proteins (100 pmoles in a 10 μl volume and five two-fold serial dilutions thereof) were spotted onto a freshly spread lawn of log phase staphylococcal cells (OD600 nm of 0.4-0.6, diluted ¼ before plating) that had air dried for 15 min on gridded TSA (tryptic soy agar) plates. The spotted plates were air dried for 10 min in a laminar flow hood and incubated overnight at 37° C. Cleared spots indicating cell lysis were scored within 24 hours of plating the cells.
(§2) The φSH2 full length enzyme and the A1 construct were further tested in plate lysis assays against a set of different staphylococcal strains, including MRSA strains (NRS 382-385), mastitis isolates (305, Tanji 1-26), and coagulase negative staphylococci (non S. aureus) (Table 2). The same molar amounts of both proteins (ranging from 100 pmoles to 3.125 pmoles, in a volume of 10 ul) were spotted onto lawns of mid log phase cells of the respective strains, and the plates were analyzed for lysis zones the next day.

[3] = tested on: S. aureus Tanji 26; test: Plate lysis assay; assay type: cell-based; details: 100 pmoles and 2-fold serial dilutions spotted on bacterial lawns
Experimental: as §1, §2

[4] = tested on: S. aureus NRS 382; test: Plate lysis assay; assay type: cell-based; details: S. aureus NRS 382 (MRSA); 100 pmoles and 2-fold serial dilutions spotted on bacterial lawns
Experimental: as §1, §2

[5] = tested on: S. epidermidis; test: Plate lysis assay; assay type: cell-based; details: 100 pmoles and 2-fold serial dilutions spotted on bacterial lawns
Experimental: as §1, §2

[6] = tested on: S. aureus Tanji 20; test: Plate lysis assay; assay type: cell-based; details: 100 pmoles and 2-fold serial dilutions spotted on bacterial lawns
Experimental: as §1, §2

[7] = tested on: S. aureus 305; test: Plate lysis assay; assay type: cell-based; details: 100 pmoles and 2-fold serial dilutions spotted on bacterial lawns
Experimental: as §1, §2

[8] = tested on: S. simulans; test: Plate lysis assay; assay type: cell-based
Experimental: as §1, §2

[9] = tested on: S. hyicus; test: Plate lysis assay; assay type: cell-based
Experimental: as §1, §2

[10] = tested on: S. aureus Tanji 1; test: Plate lysis assay; assay type: cell-based; details: 100 pmoles and 2-fold serial dilutions spotted on bacterial lawns
Experimental: as §1, §2

[11] = tested on: S. aureus NRS 383; test: Plate lysis assay; assay type: cell-based; details: S. aureus NRS 383 (MRSA); 100 pmoles and 2-fold serial dilutions spotted on bacterial lawns
Experimental: as §1, §2

[12] = tested on: S. warneri; test: Plate lysis assay; assay type: cell-based; details: 100 pmoles and 2-fold serial dilutions spotted on bacterial lawns
Experimental: as §1, §2

[13] = tested on: S. aureus Tanji 19; test: Plate lysis assay; assay type: cell-based; details: 100 pmoles and 2-fold serial dilutions spotted on bacterial lawns
Experimental: as §1, §2

[14] = tested on: S. aureus NRS 385; test: Plate lysis assay; assay type: cell-based; details: S. aureus NRS 385 (MRSA); 100 pmoles and 2-fold serial dilutions spotted on bacterial lawns
Experimental: as §1, §2

[15] = tested on: S. chromogenes; test: Plate lysis assay; assay type: cell-based; details: 100 pmoles and 2-fold serial dilutions spotted on bacterial lawns
Experimental: as §1, §2

[16] = tested on: S. xylocus; test: Plate lysis assay; assay type: cell-based; details: 100 pmoles and 2-fold serial dilutions spotted on bacterial lawns
Experimental: as §1, §2

[17] = tested on: S. aureus Newman; test: Plate lysis assay; assay type: cell-based
Experimental: as §1, §2

[18] = tested on: S. aureus Newman cells; test: Zymogram with S. aureus Newman cells embedded in the gel; assay type: cell-based; details: 5 μg protein
Experimental: All purified proteins were analyzed with 15% SDS-PAGE, using a Kaleidoscope Precision Plus Protein Standard (BioRad, Hercules, Calif.). For zymograms, a 300 mL culture volume equivalent of live mid-log phase (OD600nm=0.4-0.6) cells of S. aureus strain Newman was embedded in the gel during polymerization. The protein samples were boiled in Laemmli sample buffer (BioRad) with β-mercaptoethanol, and electrophoresed with identical buffers and voltage for one hour in both the SDS-PAGE and the zymogram using a Mini-Protean TETRA gel system (BioRad). SDS gels were Coomassie stained and zymograms were washed in excess water and further incubated in deionized water for 60 min, followed by incubation in 10 mM Tris, pH 8.0 with 150 mM or 300 mM NaCl for 80 min. Areas of clearing in the turbid zymogram gel indicate a lytic protein in the gel.

[19] = tested on: S. aureus Newman cells; test: Turbidity reduction assay; assay type: cell-based, Staphylococcus aureus
Experimental: The turbidity reduction assay measures a decrease in optical density of a bacterial suspension due to lysis of the target bacteria by a lytic protein. The assays were performed in a 96-well dish format essentially as described previously (Donovan et al. 2006, supra). In order to reduce the variability of the assay, frozen stocks of S. aureus Newman substrate cells were prepared in a large batch as described by Becker et al. (2009b, supra). Immediately prior to the assay, the frozen cells were thawed, washed, and resuspended in the desired assay buffer such that when 100 μl of cell suspension were added to 100 μl of lysis buffer+/−protein, the final suspension has an OD600nm of ˜1.0.
Protein constructs were assayed at a concentration of 1 μM, and the assay was performed at room temperature, measuring the OD600nm at 1 min intervals for 45 min. Buffer without enzyme served as the control. The steepest slopes of the resulting lysis curves, which correspond to the lytic activities of the proteins, were determined by a sliding window over each group of three consecutive time points for the entire 45 min period. Specific activities were expressed as ΔOD600nm/min/μM, and the “no enzyme” control value was subtracted from each experimental value.
In order to determine the effect of salt concentration on lytic activity, turbidity reduction assays were performed in 10 mM Tris buffers at pH 7.5 with varying NaCl concentrations between 0 mM and 600 mM. Accordingly, the influence of pH was determined by using a series of different buffers with pH values ranging from 3.5 to 10.0. Citrate buffers were used for pH 3.5, 4.5, 5.5, and 6.0, MOPS buffers for pH 6.5, 7.0, and 7.5, Tris buffers for pH 8.0 and 9.0, and Carbonate/bicarbonate buffer for pH 10.0. The concentration of the buffer substance in all buffers used was 20 mM, and the NaCl concentration was 200 mM. To test the effect of bivalent metal ions, assays were performed in 10 mM Tris, 200 mM NaCl, pH 7.5 supplemented with MgCl2, MnCl2, or CaCl2 at different concentrations (0.1 mM, 1 mM, 10 mM), buffer without metal ions serving as control.

[20] = tested on: staphylococcal strains (MRSA strains, mastitis isolates, coagulase negative staphylococci); test: Plate lysis assay, whole set of strains; assay type: cell-based, Staphylococcus; details: 100 to 3.125 pmoles spotted
Experimental: as §1, §2

[21] = 100 pmoles and 2-fold serial dilutions spotted on bacterial lawns

B1: ΦSH2 full length: Full length C-terminally 6×His-tagged Staphylococcus haemolyticus φSH2 prophage endolysin (1-493), SEQ ID NO:2 (protein)
chain: MKTQAEINKRLDAYRKGTVDSPYRVKVWTSYDNRFYPMEPGCIDVDKSFHAQCADLTIDYILWLTDNEFRIRGNAKDAINPKKNKLPEGWKIVLNRPSTVPRKGWIAVFTDGTYWEYGHIGMVYDGGNTSRFQILEQNWNGWANKKPSLRWDNYYGLTHFIVPPVAKENKAVSSSKQQAPKQKVKKASTKKALPKITKHITGYNMDKRGYNPKGVVLHNDAGGMNYKQYYNNLVNANYDRLARGIAHAYVDRTGIWEAIDESRIAWHVADGTRPGSGNHDFYGIEVNQSLRASDKEFLENEQAVFQFAAEKLKKWGLPANRNTVRLHNEFSQTSCPHRSMVLHTGLDPLYHSITEHARLKLKDYFIKQIRAYMDGKKPTSKVVVSKPGSASTPATRKDANGYRENPHGTLYKEEHATFTANANIITRYVGPFTNMPQAGILKAGQTIIYDEVMKQDGYIWVGYTAYNGKRVYLPVRKWNRETDSVGKLWGVISLEHHHHHH
modifications: C-terminal 6xHis tag; Bacteriophage Phi SH2
% Survival ([1]; 0 hours, mice infected i.p. with MRSA NRS382, treated 30 min post infection (φSH2 200 μg/mouse i.p.; Vancomycin 375 μg/mouse s.c.; Oxacillin 1250 μg/mouse s.c.)): 100%
% Survival ([1]; 4 hours, same infection and treatment): 100%
% Survival ([1]; 8 hours, same infection and treatment): 100%
% Survival ([1]; 12 hours, same infection and treatment): 100%
% Survival ([1]; 16 hours, same infection and treatment): 100%
% Survival ([1]; 20 hours, same infection and treatment): 100%
% Survival ([1]; 24 hours, same infection and treatment): 100%
% Survival ([1]; 28 hours, same infection and treatment): 100%
% Survival ([1]; 32 hours, same infection and treatment): 100%
% Survival ([1]; 36 hours, same infection and treatment): 100%
% Survival ([1]; 40 hours, same infection and treatment): 100%
% Survival ([1]; 44 hours, same infection and treatment): 100%
% Survival ([1]; 48 hours (end of the experiment), same infection and treatment): 100%
Lytic activity (lowest amount of protein producing a lysis zone) [2]: + (+: 100 pmoles)
Lytic activity (lowest amount of protein producing a lysis zone) [3]: + (+: 100 pmoles)
Lytic activity (lowest amount of protein producing a lysis zone) [4]: − (‘−’ means that no lysis was observed at the highest amount tested (100 pmoles))
Lytic activity (lowest amount of protein producing a lysis zone) [5]: − (‘−’ means that no lysis was observed at the highest amount tested (100 pmoles))
Lytic activity (lowest amount of protein producing a lysis zone) [6]: ++ (++: 50 pmoles)
Lytic activity (lowest amount of protein producing a lysis zone) [7]: ++ (++: 50 pmoles)
Lytic activity (lowest amount of protein producing a lysis zone) [8, 21]: + (+: 100 pmoles)
amount of protein causing a lysis zone ([8]; 100 to 3.125 pmoles spotted): 100 pmol
Lytic activity (lowest amount of protein producing a lysis zone) [9, 21]: ++++++ (++++++: ≦3.125 pmoles)
amount of protein causing a lysis zone ([9]; 100 to 3.125 pmoles spotted): lowest amount tested
Lytic activity (lowest amount of protein producing a lysis zone) [10]: ++ (++: 50 pmoles)
Lytic activity (lowest amount of protein producing a lysis zone) [11]: − (‘−’ means that no lysis was observed at the highest amount tested (100 pmoles))
Lytic activity (lowest amount of protein producing a lysis zone) [12]: +++ (+++: 25 pmoles)
Lytic activity (lowest amount of protein producing a lysis zone) [13]: ++ (++: 50 pmoles)
Lytic activity (lowest amount of protein producing a lysis zone) [14]: − (‘−’ means that no lysis was observed at the highest amount tested (100 pmoles))
Lytic activity (lowest amount of protein producing a lysis zone) [15]: +++ (+++: 25 pmoles)
Lytic activity (lowest amount of protein producing a lysis zone) [16]: +++ (+++: 25 pmoles)
Lytic activity (lowest amount of protein producing a lysis zone) [17, 21]: − (‘−’ means that no lysis was observed at the highest amount tested (100 pmoles))
amount of protein causing a lysis zone ([17]; 100 to 3.125 pmoles spotted): not lysed by the highest amount
lysis in zymogram ([18]; after incubation in deionized water for 60 min): faint zones of lysis
lysis in zymogram ([18]; water 60 min, then 10 mM Tris, 150 mM NaCl, pH 8.0 up to 80 min): considerably weaker
lysis in zymogram ([18]; water 60 min, then 10 mM Tris, 300 mM NaCl, pH 8.0 for 80 min): pronounced lytic band
NaCl concentration of optimum lytic activity ([19]; 1 μM protein, 10 mM Tris pH 7.5, NaCl 0-600 mM): 300 mM
lytic activity in turbidity reduction assays (in words) ([19]; 1 μM protein, different NaCl concentrations): moderate lytic activity
increase of lytic activity by Ca2+ ([19]; 10 mM CaCl2, relative to 0 mM, 10 mM Tris, 200 mM NaCl, pH 7.5): three-fold
effect of Mg2+ on lytic activity ([19]; 0.1-10 mM MgCl2, 10 mM Tris, 200 mM NaCl, pH 7.5): not significantly alter
effect of Mn2+ on lytic activity ([19]; 0.1-10 mM MnCl2, 10 mM Tris, 200 mM NaCl, pH 7.5): slightly inhibitory effect
strains against which lytic activity was displayed ([20]; 16 strains tested): 11 out of 16
MRSA strains lysed ([20]; four MRSA strains (NRS 382-385)): one out of four
